Experimental data published in patent US20160031957A1 (UNITED STATES OF AMERICA AS REPRESENTED BY THE SECRETARY …, published 2016).
Positions count from the first letter of the chain named.

Experiments:
Assay in all cases: interaction in ABC DLBCL cells expressing the RNF31 isoform; method not detailed
[1] = target: T1, RNF31 Q622L mutant expressed in ABC DLBCL cells (UniProt Q96EP0 1-1072)
T1 construct: Expressed in ABC DLBCL cells; also called RNF31 mutant
T1 sequence (looked up): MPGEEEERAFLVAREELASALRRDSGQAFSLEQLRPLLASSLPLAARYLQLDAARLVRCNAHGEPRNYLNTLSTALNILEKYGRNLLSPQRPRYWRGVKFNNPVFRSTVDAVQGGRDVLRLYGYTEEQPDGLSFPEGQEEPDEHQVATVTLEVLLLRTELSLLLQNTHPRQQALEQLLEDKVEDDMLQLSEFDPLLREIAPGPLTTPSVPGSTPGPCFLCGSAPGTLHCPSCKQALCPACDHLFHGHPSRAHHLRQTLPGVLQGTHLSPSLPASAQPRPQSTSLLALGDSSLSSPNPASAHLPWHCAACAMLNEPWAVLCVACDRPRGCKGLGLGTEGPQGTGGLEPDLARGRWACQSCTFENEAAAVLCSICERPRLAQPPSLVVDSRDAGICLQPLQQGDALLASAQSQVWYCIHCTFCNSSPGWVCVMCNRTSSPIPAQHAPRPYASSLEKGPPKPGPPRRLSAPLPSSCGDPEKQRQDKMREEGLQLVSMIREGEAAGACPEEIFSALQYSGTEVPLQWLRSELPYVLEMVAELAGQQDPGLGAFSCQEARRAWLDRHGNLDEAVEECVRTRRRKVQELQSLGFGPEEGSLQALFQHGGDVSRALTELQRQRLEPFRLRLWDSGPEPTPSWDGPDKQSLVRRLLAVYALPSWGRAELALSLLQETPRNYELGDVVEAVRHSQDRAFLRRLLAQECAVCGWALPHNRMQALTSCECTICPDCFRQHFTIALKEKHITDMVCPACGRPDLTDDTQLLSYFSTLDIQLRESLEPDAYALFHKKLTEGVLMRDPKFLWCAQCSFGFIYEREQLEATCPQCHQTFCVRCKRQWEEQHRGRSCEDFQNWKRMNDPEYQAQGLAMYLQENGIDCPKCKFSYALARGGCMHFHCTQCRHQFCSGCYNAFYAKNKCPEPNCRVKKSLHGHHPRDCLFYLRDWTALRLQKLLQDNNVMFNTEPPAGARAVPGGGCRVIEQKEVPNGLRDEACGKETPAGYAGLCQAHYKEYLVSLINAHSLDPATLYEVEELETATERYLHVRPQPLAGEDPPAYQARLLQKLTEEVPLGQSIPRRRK

[2] = target: T2, RNF31 Q584H mutant expressed in ABC DLBCL cells (UniProt Q96EP0 1-1072)
T2 construct: Expressed in ABC DLBCL cells; also called RNF31 mutant
T2 sequence (looked up): T1 sequence (looked up) with Q584H, L622Q

[3] = target: T3, wild type RNF31 expressed in ABC DLBCL cells (UniProt Q96EP0 1-1072)
T3 sequence (looked up): T1 sequence (looked up) with L622Q

binding result [1]: binds
binding result [2]: binds
binding result [3]: binds
B1: MALT1 (enzyme, UniProt Q9UDY8 2-824, looked up)
chain: SLLGDPLQALPPSAAPTGPLLAPPAGATLNRLREPLLRRLSELLDQAPEGRGWRRLAELAGSRGRLRLSCLDLEQCSLKVLEPEGSPSLCLLKLMGEKGCTVTELSDFLQAMEHTEVLQLLSPPGIKITVNPESKAVLAGQFVKLCCRATGHPFVQYQWFKMNKEIPNGNTSELIFNAVHVKDAGFYVCRVNNNFTFEFSQWSQLDVCDIPESFQRSVDGVSESKLQICVEPTSQKLMPGSTLVLQCVAVGSPIPHYQWFKNELPLTHETKKLYMVPYVDLEHQGTYWCHVYNDRDSQDSKKVEIIIGRTDEAVECTEDELNNLGHPDNKEQTTDQPLAKDKVALLIGNMNYREHPKLKAPLVDVYELTNLLRQLDFKVVSLLDLTEYEMRNAVDEFLLLLDKGVYGLLYYAGHGYENFGNSFMVPVDAPNPYRSENCLCVQNILKLMQEKETGLNVFLLDMCRKRNDYDDTIPILDALKVTANIVFGYATCQGAEAFEIQHSGLANGIFMKFLKDRLLEDKKITVLLDEVAEDMGKCHLTKGKQALEIRSSLSEKRALTDPIQGTEYSAESLVRNLQWAKAHELPESMCLKFDCGVQIQLGFAAEFSNVMIIYTSIVYKPPEIIMCDAYVTDFPLDLDIDPKDANKGTPEETGSYLVSKDLPKHCLYTRLSSLQKLKEHLVFTVCLSYQYSGLEDTVEDKQEVNVGKPLIAKLDMHRGLGRKTCFQTCLMSNGPYQSSAATSGGAGHYHSLQDPFHGVYHSHPGNPSNVTPADSCHCSRTPDAFISSFAHHASCHFSRSNVPVETTDEIPFSFSDRLRISEK
notes: Endogenous protein in cell lysates
